Source: patent publication US20140356366A1 (SAMSUNG ELECTRONICS, published 2014)
Numbering of substitutions follows the chain as printed.

Tests used:
[1] = biological target: c-Met on MKN45 stomach cancer cells (human, UniProt P08581 25-1390); assay: cell-based or functional assay
[2] = biological target: T1, EGFR-Fc (#344-ER, R&D Systems) (UniProt P00533 25-645); assay: Biacore T100, antibody captured by human Fab capturer on CM5 chip, EGFR-Fc injected
T1 construct: Bought reagent; only name and catalogue number are printed; not shown: Fc part of the bought fusion protein
Method: (§1) The anti-c-Met/anti-EGFR bispecific antibody was analyzed for affinity for the two antigens (c-Met/EGFR) using a Biacore T100 instrument (GE). […] The chip surface was regenerated by injecting a 10 mM Glycine-HCl solution (pH 1.5). For affinity evaluation, the data was fitted using the BIAevaluation software (GE Healthcare, Biacore T100 evaluation software).

[3] = biological target: T2, human c-Met/Fc fusion protein (R&D Systems) (human, UniProt P08581 25-932); assay: Biacore T100, antibody captured by human Fab capturer on CM5 chip, c-Met-Fc injected
T2 construct: Bought reagent; Treated as one molecule; also called c-Met-Fc (#358-MT/CF, R&D Systems); human c-Met/Fc protein; not shown: Fc part of the bought fusion protein
T2 sequence (P08581 25-932 limits assumed): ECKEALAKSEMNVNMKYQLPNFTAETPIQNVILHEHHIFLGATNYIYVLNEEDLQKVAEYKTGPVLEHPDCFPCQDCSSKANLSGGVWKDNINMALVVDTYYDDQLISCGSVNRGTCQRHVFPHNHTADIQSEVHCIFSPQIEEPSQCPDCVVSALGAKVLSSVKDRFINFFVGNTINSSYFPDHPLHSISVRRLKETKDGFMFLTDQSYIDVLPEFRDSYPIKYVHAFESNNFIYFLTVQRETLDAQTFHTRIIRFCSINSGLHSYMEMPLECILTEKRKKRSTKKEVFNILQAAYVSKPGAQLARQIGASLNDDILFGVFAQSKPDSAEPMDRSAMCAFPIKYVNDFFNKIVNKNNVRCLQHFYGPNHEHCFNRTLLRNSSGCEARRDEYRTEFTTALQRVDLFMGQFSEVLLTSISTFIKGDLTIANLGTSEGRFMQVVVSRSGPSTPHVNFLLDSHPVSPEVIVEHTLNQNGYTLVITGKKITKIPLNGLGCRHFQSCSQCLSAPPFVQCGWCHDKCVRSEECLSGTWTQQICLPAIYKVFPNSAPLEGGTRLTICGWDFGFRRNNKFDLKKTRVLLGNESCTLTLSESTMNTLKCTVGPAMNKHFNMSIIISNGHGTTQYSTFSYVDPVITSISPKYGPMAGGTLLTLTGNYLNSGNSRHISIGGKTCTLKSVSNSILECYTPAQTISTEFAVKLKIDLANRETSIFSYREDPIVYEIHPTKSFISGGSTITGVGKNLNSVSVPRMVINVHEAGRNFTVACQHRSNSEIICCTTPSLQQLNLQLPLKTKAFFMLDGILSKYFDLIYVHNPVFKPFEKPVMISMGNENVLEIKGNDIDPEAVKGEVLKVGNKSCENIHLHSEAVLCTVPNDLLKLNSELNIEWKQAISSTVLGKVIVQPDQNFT
Method: as §1

[4] = biological target: T3, synthesized peptide CSPQIEDPSQC (SEQ ID NO: 127), E168D; assay: PEPSCAN ELISA on synthesized peptides
T3 construct: Core EDPSQ, E168D mutation of c-Met
T3 peptide: CSPQIEDPSQC
Method: (§2) The peptides were maintained at room temperature for 30 minutes by using a 5% blocking solution to provoke a reaction (4% ovalbumin, 5% horse serum, and 1% Tween 80). […] Thereafter, the resultant product was treated with rabbit-anti-sheep antibody (SIGMA) and washed with PBS, and the washed product was then treated with peroxidase-attached swine-anti-rabbit antibody (SIGMA) and washed with PBS. Then, the resultant was treated with 2 ul/ml of peroxidase 2,2′-azino-di-3-ethylbenzthiazoline sulfonate (ABTS) (SIGMA) in 3% H₂O₂, and a color reaction was measured after 1 hour.

[5] = biological target: T4, synthesized peptide CIEDPSQAPDC (SEQ ID NO: 130), E168D; assay: PEPSCAN ELISA on synthesized peptides
T4 construct: Core EDPSQ, E168D mutation of c-Met
T4 peptide: CIEDPSQAPDC
Method: as §2

[6] = biological target: T5, synthesized peptide CQIEDPSQAPC (SEQ ID NO: 129), E168D; assay: PEPSCAN ELISA on synthesized peptides
T5 construct: Core EDPSQ, E168D mutation of c-Met
T5 peptide: CQIEDPSQAPC
Method: as §2

[7] = biological target: T6, peptide EEPSQ (SEQ ID NO: 73); assay: Biacore, huAbF46 immobilized on CM5 chip, peptide injected
T6 peptide: EEPSQ

[8] = biological target: T7, peptide EEPSA (SEQ ID NO: 137); assay: as above
T7 peptide: EEPSA

[9] = biological target: T8, peptide EEPAQ (SEQ ID NO: 136); assay: as above
T8 peptide: EEPAQ

[10] = biological target: T9, peptide EAPSQ (SEQ ID NO: 134); assay: as above
T9 peptide: EAPSQ

[11] = biological target: T10, peptide EEASQ (SEQ ID NO: 135); assay: as above
T10 peptide: EEASQ

[12] = biological target: T11, peptide AEPSQ (SEQ ID NO: 133); assay: as above
T11 peptide: AEPSQ

c-Met on MKN45 stomach cancer cells, sequence (P08581 25-1390): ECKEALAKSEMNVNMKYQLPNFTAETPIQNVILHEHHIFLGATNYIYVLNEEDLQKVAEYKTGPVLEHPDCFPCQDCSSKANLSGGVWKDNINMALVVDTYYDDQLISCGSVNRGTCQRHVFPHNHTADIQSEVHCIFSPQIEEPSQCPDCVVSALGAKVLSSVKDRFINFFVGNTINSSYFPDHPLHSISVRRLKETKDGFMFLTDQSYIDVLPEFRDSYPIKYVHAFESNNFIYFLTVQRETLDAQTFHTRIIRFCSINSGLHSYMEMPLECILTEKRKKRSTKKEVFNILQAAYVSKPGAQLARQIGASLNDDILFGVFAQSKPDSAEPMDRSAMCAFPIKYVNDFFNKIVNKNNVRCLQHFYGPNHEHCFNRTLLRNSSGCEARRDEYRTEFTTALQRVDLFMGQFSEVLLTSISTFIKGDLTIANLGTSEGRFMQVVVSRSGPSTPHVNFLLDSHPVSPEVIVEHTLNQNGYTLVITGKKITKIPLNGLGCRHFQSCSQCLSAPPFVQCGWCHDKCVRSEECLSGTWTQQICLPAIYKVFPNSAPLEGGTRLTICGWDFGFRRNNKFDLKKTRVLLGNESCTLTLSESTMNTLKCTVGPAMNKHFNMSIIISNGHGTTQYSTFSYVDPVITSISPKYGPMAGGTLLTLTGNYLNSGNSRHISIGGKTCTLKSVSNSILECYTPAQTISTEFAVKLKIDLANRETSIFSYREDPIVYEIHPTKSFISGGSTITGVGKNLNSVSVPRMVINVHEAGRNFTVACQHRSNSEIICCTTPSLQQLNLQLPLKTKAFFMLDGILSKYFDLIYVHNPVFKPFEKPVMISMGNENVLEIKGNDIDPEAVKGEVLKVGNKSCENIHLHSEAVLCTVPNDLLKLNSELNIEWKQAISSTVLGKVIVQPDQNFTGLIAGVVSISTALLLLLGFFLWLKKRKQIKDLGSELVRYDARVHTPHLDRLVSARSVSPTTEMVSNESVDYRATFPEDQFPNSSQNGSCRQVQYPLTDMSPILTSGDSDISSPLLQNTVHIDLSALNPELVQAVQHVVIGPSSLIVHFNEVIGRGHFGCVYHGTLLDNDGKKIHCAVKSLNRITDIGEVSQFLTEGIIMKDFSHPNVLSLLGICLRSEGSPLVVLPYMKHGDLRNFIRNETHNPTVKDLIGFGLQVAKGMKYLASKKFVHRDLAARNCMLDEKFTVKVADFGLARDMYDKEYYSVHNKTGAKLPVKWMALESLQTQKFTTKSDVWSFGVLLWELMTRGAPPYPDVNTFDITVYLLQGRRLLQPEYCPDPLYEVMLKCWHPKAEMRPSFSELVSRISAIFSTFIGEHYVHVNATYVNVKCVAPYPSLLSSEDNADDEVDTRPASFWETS

B1: anti-c-Met/anti-EGFR bispecific antibody ME-03 (bispecific antibody)
heavy: EVQLVESGGGLVQPGGSLRLSCAASGFTFTDYYMSWVRQAPGKGLEWLGFIRNKANGYTTEYSASVKGRFTISRDNSKNTLYLQMNSLRAEDTAVYYCARDNWFAYWGQGTLVTVSSASTKGPSVFPLAPCSRSTSESTAALGCLVKDYFPEPVTVSWNSGALTSGVHTFPAVLQSSGLYSLSSVVTVPSSNFGTQTYTCNVDHKPSNTKVDKTVERKCCVECPPCPAPPVAGPSVFLFPPKPKDTLMISRTPEVTCVVVDVSHEDPEVQFNWYVDGVEVHNAKTKPREEQFNSTFRVVSVLTVVHQDWLNGKEYKCKVSNKGLPAPIEKTISKTKGQPREPQVYTLPPSREEMTKNQVSLTCLVKGFYPSDIAVEWESNGQPENNYKTTPPMLDSDGSFFLYSKLTVDKSRWQQGNVFSCSVMHEALHNHYTQKSLSLSPGKGGGGSGGGGSQVQLVQSGAEVKKPGSSVKVSCKASGFTFTDYKIHWVRQAPGQGLEWMGYINPNSGYSTYASKFQGRVTITADKSTSTAYMELSSLRSEDTAVYYCARLSPGGYYVMDAWGQGTTVTVSSGGGGSGGGGSGGGGSDIQMTQSPSSLSASVGDRVTITCRASQGINNYLNWYQQKPGKAPKLLIYNTNNLQTGVPSRFSGSGSGTEFTLTISSLQPEDEATYYCLQHNSFPTFGQGTKLEIKRT
light: DIQMTQSPSSLSASVGDRVTITCKSSQSLLASGNQNNYLAWYQQKPGKAPKMLIIWASTRVSGVPSRFSGSGSGTDFTLTISSLQPEDFATYYCQQSYSRPYTFGQGTKVEIKRTVAAPSVFIFPPSDEQLKSGTASVVCLLNNFYPREAKVQWKVDNALQSGNSQESVTEQDSKDSTYSLSSTLTLSKADYEKHKVYACEVTHQGLSSPVTKSFNRGEC
c-Met degradation (relative total amount of c-Met, ELISA of lysates of MKN45 cells treated 24 hrs with 5 µg/ml antibody) [1]: 88.4%

B2: anti-c-Met/anti-EGFR bispecific antibody ME-03S (bispecific antibody)
heavy: B1 heavy with G497C, G688C
light: B1 light
notes: Secondary mutant (disulfide-stabilised) anti-EGFR scFv fused to the C-terminus of the Fc of L3-1Y-IgG2
Kd [2]: 0.12 nM | koff [2]: 2.7e-05 s⁻¹ | kon [2]: 240000 M⁻¹ s⁻¹ | Kd [3]: 0.23 nM | koff [3]: 0.00016 s⁻¹ | kon [3]: 670000 M⁻¹ s⁻¹

B3: anti-c-Met/anti-EGFR bispecific antibody ME-01 (bispecific antibody)
heavy: B1 heavy with I504F, S515Q, L634R, E671F
light: B1 light
c-Met degradation (relative total amount of c-Met, ELISA of lysates of MKN45 cells treated 24 hrs with 5 µg/ml antibody) [1]: 86.8%

B4: humanized antibody huAbF46 (H4-heavy / H4-light) (antibody, V domains shown)
VH: EVQLVESGGGLVQPGGSLRLSCAASGFTFTDYYMSWVRQAPGKGLEWLGFIRNKANGYTTEYSASVKGRFTISRDNSKNTLYLQMNSLRAEDTAVYYCARDNWFAYWGQGTLVTVSS
VL: DIQMTQSPSSLSASVGDRVTITCKSSQSLLASGNQNNYLAWHQQKPGKAPKMLIIWASTRVSGVPSRFSGSGSGTDFTLTISSLQPEDFATYYCQQSYSAPLTFGQGTKVEIKR
notes: Purified on Protein A as a whole antibody; also called humanized antibody AbF46
binding result [4]: no binding | binding result [5]: no binding | binding result [6]: no binding | Kd [7]: 1.64 nM | binding result [8]: no binding (tested: 100 nM to 0.39 nM of the peptides) | Kd [9]: 1.43 nM | binding result [10]: no binding (tested: 100 nM to 0.39 nM of the peptides) | binding result [11]: no binding (tested: 100 nM to 0.39 nM of the peptides) | binding result [12]: no binding (tested: 100 nM to 0.39 nM of the peptides)
